Experimental data taken from US20230416361A1 (MIROBIO, published 2023).

T1: human CD200RLa extracellular domain fused to mouse CD80 transmembrane and intracellular tail, on HEK293T cells (human; mouse, UniProt Q6Q8B3 24-239; Q00609 247-306, limits assumed)
T1 construct: extracellular domain;domain: transmembrane and intracellular tail; also called human CD200RLa chimeric construct
T1 sequence (looked up): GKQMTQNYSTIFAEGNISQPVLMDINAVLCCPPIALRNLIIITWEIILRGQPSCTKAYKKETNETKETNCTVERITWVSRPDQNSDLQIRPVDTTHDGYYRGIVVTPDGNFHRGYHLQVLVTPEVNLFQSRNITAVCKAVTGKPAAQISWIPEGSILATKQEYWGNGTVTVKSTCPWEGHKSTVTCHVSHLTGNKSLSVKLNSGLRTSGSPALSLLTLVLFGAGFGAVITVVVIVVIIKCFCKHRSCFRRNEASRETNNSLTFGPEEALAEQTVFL

T2: human CD200RLa full length construct on HEK293T cells (human, UniProt Q6Q8B3 24-271)
T2 construct: whole, on cells; also called CD200R1L
T2 sequence (looked up): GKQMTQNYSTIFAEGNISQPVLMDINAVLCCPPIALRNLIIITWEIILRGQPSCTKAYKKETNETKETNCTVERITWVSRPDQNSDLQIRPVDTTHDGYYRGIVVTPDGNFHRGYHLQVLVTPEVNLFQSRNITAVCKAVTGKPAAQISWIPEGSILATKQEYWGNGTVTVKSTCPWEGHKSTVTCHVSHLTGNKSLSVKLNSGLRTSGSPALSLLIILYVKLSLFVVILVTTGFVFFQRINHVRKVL

T3: cyno CD200RLa full length construct on cells (cynomolgus, UniProt A0A2K5W6R0 30-275)
T3 construct: whole, on cells; also called cynomolgus CD200RLa expressed on cells
T3 sequence: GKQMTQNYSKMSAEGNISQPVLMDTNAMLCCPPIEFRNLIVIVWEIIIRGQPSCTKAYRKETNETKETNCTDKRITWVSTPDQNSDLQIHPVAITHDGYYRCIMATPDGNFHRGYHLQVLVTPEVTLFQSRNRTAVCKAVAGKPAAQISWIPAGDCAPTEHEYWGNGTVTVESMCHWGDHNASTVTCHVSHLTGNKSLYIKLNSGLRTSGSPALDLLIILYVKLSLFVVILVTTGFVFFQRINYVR

T4: soluble cynomolgus macaque CD200R1 extracellular domain (cynomolgus macaque, UniProt G7NZT0 29-266)
T4 construct: extracellular domain; also called Cynomolgus CD200R
T4 sequence: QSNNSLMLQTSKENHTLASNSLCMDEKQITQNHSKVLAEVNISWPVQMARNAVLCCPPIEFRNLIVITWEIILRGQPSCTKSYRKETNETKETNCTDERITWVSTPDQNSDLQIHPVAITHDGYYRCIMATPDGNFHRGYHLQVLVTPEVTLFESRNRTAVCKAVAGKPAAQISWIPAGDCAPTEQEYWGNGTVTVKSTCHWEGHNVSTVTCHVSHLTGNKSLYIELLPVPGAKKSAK

T5: monomeric soluble human CD200R extracellular domain (human, UniProt Q8TD46 29-265)
T5 construct: extracellular domain; also called hCD200R; monomeric CD200R protein
T5 sequence (looked up): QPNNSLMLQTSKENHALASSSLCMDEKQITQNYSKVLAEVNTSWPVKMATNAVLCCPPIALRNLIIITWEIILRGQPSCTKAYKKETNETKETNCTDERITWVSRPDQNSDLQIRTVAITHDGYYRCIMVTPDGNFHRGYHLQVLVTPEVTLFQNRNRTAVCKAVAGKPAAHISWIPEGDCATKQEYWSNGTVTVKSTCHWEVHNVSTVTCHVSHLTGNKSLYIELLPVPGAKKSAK

T6: extracellular domain of cyno CD200R (SinoBiological 11232-C08H, Met1-Leu267) (cynomolgus, UniProt G7NZT0 25-268)
T6 construct: range 1-267; Bought protein
T6 sequence: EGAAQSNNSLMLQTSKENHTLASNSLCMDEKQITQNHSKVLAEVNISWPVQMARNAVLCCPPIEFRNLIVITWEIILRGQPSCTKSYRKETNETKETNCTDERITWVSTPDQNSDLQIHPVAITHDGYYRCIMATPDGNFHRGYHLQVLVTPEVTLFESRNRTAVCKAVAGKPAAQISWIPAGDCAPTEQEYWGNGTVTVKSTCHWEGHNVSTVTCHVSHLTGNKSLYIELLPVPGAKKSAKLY


Tests used:
[1] = target: T1, human CD200RLa extracellular domain …; test: flow cytometry on transiently transfected HEK293T cells
Method: (§1) The binding of CD200R antibodies to human and cyno CD200R and CD200RLa constructs was assessed by flow cytometry of transiently transfected cells. CD200RLa has a charged transmembrane (TM) that is not expected to express well in the absence of appropriate binding partners. Therefore, in addition to the full length CD200RLa constructs, chimeric constructs were used consisting of the CD200RLa extracellular domain fused to mouse CD80 transmembrane and intracellular tail to enable cell surface expression.
(§2) HEK293T cells were plated out at 1 million cells per well in a 6 well plate the day before transfection. The following day cells were transfected with CD200R constructs using 2.5 μg plasmid DNA (a pcDNA3.4 vector containing the CD200R construct sequence) and 10 μl Lipofectamine 2000 (mixed in 200 μl Optimem for 5 minutes then added dropwise to cells). 48 hours after transfection, cells were collected by vigorous pipetting in cold PBS and 50,000 cells pelleted per well in 96 well U bottom plates.
(§3) Cells were then washed and stained for 30 minutes with a secondary staining mix containing a live/dead marker (Near IR LD, Biolegend cat #423106) and APC anti-hIgG (clone QA19A42, Biolegend cat #366906) or AF647 anti-mIgG1 (clone RMG1-1, cat #406618). As a control, cells were separately stained with the commercial anti-CD200R clone OX108 directly labelled with AF647 (Biolegend cat #329308). Finally, cells were washed and resuspended in FACS buffer for acquisition on a FACS Celesta flow cytometer.

[2] = target: T2, human CD200RLa full length construct on …; test: as above
Method: as §1, §2, §3

[3] = target: T3, cyno CD200RLa full length construct on …; test: flow cytometry
Method: as §1, §2
as §3, with “Finally, cells were washed and resuspended in FACS buffer for acquisition on a FACS Celesta flow cytometer.” left out

[4] = target: T4, soluble cynomolgus macaque CD200R1 …; test: SPR, captured antibody, soluble monomeric receptor injected, single cycle kinetics, 37 C
Method: (§4) The binding affinity and kinetics of the CD200R antibodies of the present disclosure to human or cynomolgus CD200R were determined by surface plasmon resonance (SPR) using the Biacore T200 (GE Healthcare). Mouse antibody capture kit (GE Healthcare) was used to coat a Series S CM5 Sensor Chip (GE Healthcare) with polyclonal anti-mouse IgG.
(§5) Anti-CD200R antibody was captured onto the biosensor surface and a negative control antibody (clone Mopc21; Biolegend) captured in the reference channel. Various concentrations of monomeric soluble human CD200R extracellular domain, soluble cynomolgus macaque CD200R1 extracellular domain or soluble cynomolgus macaque CD200RLa (a highly homologous activating receptor) were injected over the immobilized antibodies in the buffer 10 mM Hepes, 150 mM NaCl, 0.005% v/v Surfactant P20, pH 7.4 (HBS-P) at 37° C., in a single cycle kinetics analysis. Association and dissociation rates were fitted using BiaEvaluation Software (GE Healthcare) after reference and blank subtractions, and dissociation constants were calculated (Table 2).

[5] = target: T5, monomeric soluble human CD200R …; test: as above
Method: as §4, §5

[6] = target: T3, cyno CD200RLa full length construct on …; test: flow cytometry on transiently transfected HEK293T cells
Method: as §1, §2, §3

[7] = target: T5, monomeric soluble human CD200R …; test: BLI (Octet), antibody on anti-human Fc probes, monomeric CD200R in solution, 25 C, 1:1 global fit
Method: Humanised variant antibodies combining the different heavy and light variable domains described in Example 6 were produced by transient transfection of HEK293 cells. All antibodies were expressed on a human IgGI isotype with a P238D Fc mutation. The unpurified supernatants were analysed by Protein A-HPLC to determine the antibody concentrations, as a measure of expression yield. […] Binding affinity of humanized variants to human CD200R was assessed by bio-layer interferometry on an Octet R4 instrument. Each antibody was captured directly onto anti-human Fc capture probes (Sartorius 18-5060) for 60 sec followed by baseline setting in assay buffer (DPBS, 0.01% Polysorbate-20). Association of monomeric CD200R protein to immobilised antibodies was measured in 4 different protein concentrations (300, 100, 30 and 10 nM in assay buffer) at 25° C., with an association time of 120s and dissociation of 120s in assay buffer only. A reference probe with no antibody immobilised was used for background subtraction. Kinetic rate constants and binding KDs were calculated using Octet Analysis Studio 12 software. Global curve fitting based on all 4 concentrations using a 1:1 model was performed, from which kon and koff were obtained to calculate KD using the relationship KD=koff/kon.

[8] = target: T6, extracellular domain of cyno CD200R …; test: SPR (Biacore), antibody captured by anti-human Fc, CD200R extracellular domain injected, single cycle kinetics, 25 C
Method: This example investigates in vitro CD200R binding of anti-CD200R antibodies by surface plasmon resonance. Surface plasmon resonance binding experiments with purified anti-CD200R antibody (expressed on a hIgG1 isotype with a P238D Fc mutation) were performed using the Biacore T200 and 8K+instruments. Anti-human Fc antibody (Life Technologies H10500) was amine-coupled to a C1 sensor chip using standard amine-coupling chemistry. Residual activated carboxyls were blocked with ethanolamine. Antibodies with a human Fc were then captured on these surfaces.
To assess the binding of hu2131_v20_D56S antibody and variants (antibody hu213l_Q1E and antibody hu2131_Q1E_M99G) to the extracellular domains of human CD200R (Met29-Leu243) and cyno CD200R (SinoBiological 11232-C08H, Metl-Leu267), 10-30 RUs of antibody were captured. CD200R proteins were diluted into running buffer (10 mM HEPES, 150 mM NaCl, 3 mM EDTA, 0.01% Polysorbate 20, pH 7.4 with 0.1 mg/mL BSA) (full-length antibody sequences are disclosed in Table 10). Five three-fold serial dilutions were performed for each CD200R, with highest concentration being 100 nM. Samples were injected using a single cycle kinetics scheme (Karlsson Anal Biochem et al 2006). Data were analyzed using Biacore Insight Evaluation Software and fit to a simple kinetic model, from which kon and koff were obtained to calculate KD using the relationship KD=koff/kon. Experiments were run at 25° C.

| Binder | binding result [1] | binding result [2] | binding result [3] | Kd [4] | Kd [5] | binding result [6] | Kd [7] | Kd [8] | koff [8] | kon [8] |
| --- | --- | --- | --- | --- | --- | --- | --- | --- | --- | --- |
| anti-CD200R antibody clone 21.3.1 (mIgG1k isotype) (antibody, V domains shown, Murine hybridoma antibody, IgG1 kappa) VH: QVQLQQPGSELVRPGASVKLSCKASGHTFTSYWMHWVKQRPGQGLEWIGNIYPGSGSINYDEKFKSKAKLTVDTSSRTAYMQLSSLTSEDSAVYYCLTMTGTSWGQGTLVTVSA VL: DVQMIQSPSSLSASLGDIVTMTCQASQGTPINLHWFQQKPGKAPKLLISGASNLEDGVPSRFSGSRYGTAFTLTISSLEDEDMATYFCLQFTYIPWTFGGGTKLEIKR | no binding (tested: 10 ug/ml) | no binding (tested: 10 ug/ml) | no binding | 8.25 pM | 300 pM |  |  |  |  |  |
| hu2131_v20_D56S hIgG1k P238D (antibody, also called VH4/VL5-D56S) heavy: not shown light: DIQMTQSPSSLSVSVGDRVTITCQASQGTPINLHWFQQKPGKAPKLLISGASNLESGVPSRFSGSGSGTEFTFTISSLQPEDAATYYCLQFTYIPWTFGQGTKLEIKRTVAAPSVFIFPPSDEQLKSGTASVVCLLNNFYPREAKVQWKVDNALQSGNSQESVTEQDSKDSTYSLSSTLTLSKADYEKHKVYACEVTHQGLSSPVTKSFNRGEC | no binding (tested: 10 ug/ml) | no binding (tested: 10 ug/ml) |  |  |  | no binding (tested: 10 ug/ml) | 2.06 pM | 41 pM | 1.06e-05 s⁻¹ | 258000 M⁻¹ s⁻¹ |
